Columns and labels:
DRB1*0301 (DR3) = target: T1, DRB1*0301 (DR3) (Homo sapiens, UniProt P01903+P01911, A100K/A102G/A103R/A169T/F55Y/I96L/K41T/L162R/M171V/P40S/Q125H/Q178H/Q39Y/R42S/S66N/T106N/T262R/W38E/Y61H); assay: HLA class II peptide binding assay (pH 4.5); settings: unit not given
T1 construct: endogenous in cells; host or cells: MAT

HLA-A*0301 = target: T2, HLA-A*0301 (Homo sapiens, UniProt P04439); assay: HLA class I peptide binding assay; settings: for A*0301 (binding information): Table XVI, Malaria A3 motif peptides; for A*301 (binding data): Malaria A03 supermotif peptides
T2 construct: endogenous in cells; host or cells: GM3107

[1] = binding value for HLA-A*0301, unit not given
[2] = binding value to HLA-A*0301, unit not given
[3] = DR3a motif peptides, exemplary 15-mer containing the core sequence
[4] = HLA-A*0301 binding value, unit not given

T1 sequence (P01911 30-266 W38E/Q39Y/P40S/K41T/R42S/F55Y/Y61H/S66N/I96L/A100K/A102G/A103R/T106N/Q125H/Q178H): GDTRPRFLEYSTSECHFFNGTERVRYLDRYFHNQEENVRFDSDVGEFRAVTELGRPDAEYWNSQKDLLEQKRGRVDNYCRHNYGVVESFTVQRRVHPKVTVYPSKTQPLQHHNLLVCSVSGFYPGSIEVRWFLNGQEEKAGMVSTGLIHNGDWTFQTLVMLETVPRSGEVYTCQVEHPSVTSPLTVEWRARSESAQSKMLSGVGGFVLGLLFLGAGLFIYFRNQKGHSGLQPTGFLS
T1 sequence (P01903 26-254 partner): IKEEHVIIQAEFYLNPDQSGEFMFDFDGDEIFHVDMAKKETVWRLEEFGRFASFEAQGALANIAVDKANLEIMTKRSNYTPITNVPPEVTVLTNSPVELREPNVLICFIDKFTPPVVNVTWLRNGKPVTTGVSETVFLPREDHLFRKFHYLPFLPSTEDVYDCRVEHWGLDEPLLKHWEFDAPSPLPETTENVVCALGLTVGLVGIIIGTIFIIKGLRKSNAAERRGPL

Work on AEKTNKGTG yielded a DR3 binding information (DRB1*0301 (DR3); Malaria DR3b motif peptides) of -0.0033.
With ALFFITFNIC the “A*0301 (binding information)” value (HLA-A*0301; [1]) was 1.1000.
In the case of AWENVKNVI, the DR3 binding information (DRB1*0301 (DR3); Malaria DR3b motif peptides) is reported as -0.0130.
With CGKGIRSRKR the “A*0301 (binding information)” value (HLA-A*0301; [2]) was 0.0002.
With DDIDEGIEK the “A*0301 (binding information)” value (HLA-A*0301; [1]) was 0.0001.
DIPICKPENKH was tested, and the “A*0301 (binding information)” value (HLA-A*0301; [2]) was 0.0002.
DLERTICASK was tested, and the “A*301 (binding data)” value (HLA-A*0301; binding value, no unit given) was 0.0001.
For DTKIMERK, the “A*0301 (binding information)” value (HLA-A*0301; [1]) was 0.0001.
In the case of DTKKKNLERKK, the “A*301 (binding data)” value (HLA-A*0301; binding value, no unit given) is reported as 0.0001.
ESLAEKTNIC was tested, and the “A*0301 (binding information)” value (HLA-A*0301; [1]) was 0.0001.
ESLSEDITKY was tested, and the “A*0301 (binding information)” value (HLA-A*0301; [1]) was 0.0002.
Sequence FDGDNEILQ has a DR3 binding information (DRB1*0301 (DR3); [3]) of 0.0640.
FKPNDKSLY gave a DR3 binding information (DRB1*0301 (DR3); Malaria DR3b motif peptides) of 0.1700.
With FLVNGRDVQ the DR3 binding information (DRB1*0301 (DR3); Malaria DR3b motif peptides) was -0.0033.
For FNKESLAEK, the DR3 binding information (DRB1*0301 (DR3); [3]) was 0.0040.
Work on FQDEENIGI yielded a DR3 binding information (DRB1*0301 (DR3); [3]) of -0.0033.
With GTGSGVSSKX the “A*0301 (binding information)” value (HLA-A*0301; [1]) was 0.0071.
For ICADIKKNLER, the “A*301 (binding data)” value (HLA-A*0301; binding value, no unit given) was 0.0001.
IEKTNRESI was tested, and the DR3 binding information (DRB1*0301 (DR3); Malaria DR3b motif peptides) was 0.1300.
Work on IKKEEELVE yielded a DR3 binding information (DRB1*0301 (DR3); [3]) of -0.0033.
For IKPEQKEDK, the DR3 binding information (DRB1*0301 (DR3); Malaria DR3b motif peptides) was -0.0033.
With IKSNLRSGS the DR3 binding information (DRB1*0301 (DR3); Malaria DR3b motif peptides) was 0.0050.
In the case of INEEKHEKK, the DR3 binding information (DRB1*0301 (DR3); Malaria DR3b motif peptides) is reported as 0.0420.
Work on ISAEYDDSL yielded a DR3 binding information (DRB1*0301 (DR3); [3]) of -0.0033.
In the case of ISHEKTNR, the “A*0301 (binding information)” value (HLA-A*0301; [4]) is reported as 0.0001.
With ITINVEGRR the “A*301 (binding data)” value (HLA-A*0301; binding value, no unit given) was 0.0002.
Work on IYKELEDLI yielded a DR3 binding information (DRB1*0301 (DR3); [3]) of -0.0033.
For KILSVFFLA, the “A*0301 (binding information)” value (HLA-A*0301; [1]) was 0.1400.
In the case of KSLYDEIHK, the “A*0301 (binding information)” value (HLA-A*0301; [4]) is reported as 0.0005.
LALFFTIIFNK was tested, and the “A*301 (binding data)” value (HLA-A*0301; binding value, no unit given) was 0.014.
With LANEKLQEQ the DR3 binding information (DRB1*0301 (DR3); [3]) was -0.0033.
With LDNERKQSD the DR3 binding information (DRB1*0301 (DR3); Malaria DR3b motif peptides) was -0.0130.
LEQDRLAKE was tested, and the DR3 binding information (DRB1*0301 (DR3); [3]) was 0.0038.
In the case of LEQERLAKE, the DR3 binding information (DRB1*0301 (DR3); [3]) is reported as -0.0033.
Work on LFQEYQCYG yielded a DR3 binding information (DRB1*0301 (DR3); [3]) of 0.0082.
With LFVEALFQE the DR3 binding information (DRB1*0301 (DR3); [3]) was 0.0051.
LGEEDKDLD showed a DR3 binding information (DRB1*0301 (DR3); Malaria DR3b motif peptides) of -0.0130.
LHSDASKNK showed a DR3 binding information (DRB1*0301 (DR3); [3]) of -0.0033.
For LLIFHINKGK, the “A*301 (binding data)” value (HLA-A*0301; binding value, no unit given) was 0.0260.
LLIFNINGK was tested, and the “A*0301 (binding information)” value (HLA-A*0301; [4]) was 0.0260.
Sequence LPQDNRGNS has a DR3 binding information (DRB1*0301 (DR3); Malaria DR3b motif peptides) of -0.0033.
Sequence LSEEKIKKG has a DR3 binding information (DRB1*0301 (DR3); [3]) of -0.0033.
For LSFINSYEKTK, the “A*0301 (binding information)” value (HLA-A*0301; [4]) was 0.0004.
LSTEWSPCS showed a DR3 binding information (DRB1*0301 (DR3); [3]) of -0.0033.
In the case of LVGCHPSDOK (LVGCHPSDGK), the “A*0301 (binding information)” value (HLA-A*0301; [2]) is reported as 0.0004.
Sequence LYNELEMNY has a DR3 binding information (DRB1*0301 (DR3); [3]) of 0.0270.
MTTNVEGR was tested, and the “A*0301 (binding information)” value (HLA-A*0301; [4]) was 0.0002.
MTTNVEGRR was tested, and the “A*0301 (binding information)” value (HLA-A*0301; [4]) was 0.0002.
In the case of NIRVLNELNY, the “A*0301 (binding information)” value (HLA-A*0301; [1]) is reported as 0.0005.
In the case of NSEKDETIK, the “A*301 (binding data)” value (HLA-A*0301; binding value, no unit given) is reported as 0.0002.
With NSEKDFIKK the “A*0301 (binding information)” value (HLA-A*0301; [4]) was 0.0002.
With NSRNRKNEEK the “A*0301 (binding information)” value (HLA-A*0301; [4]) was 0.0004.
With NTEKGFHPFK the “A*0301 (binding information)” value (HLA-A*0301; [1]) was 0.0047.
With QSKLEQERR the “A*301 (binding data)” value (HLA-A*0301; binding value, no unit given) was 0.0002.
For QSQDNNONRH (QSQDNNGNRH), the “A*0301 (binding information)” value (HLA-A*0301; [2]) was 0.0004.
QVRICHLNDR was tested, and the “A*0301 (binding information)” value (HLA-A*0301; [2]) was 0.0005.
With RINEEKNEKK the “A*0301 (binding information)” value (HLA-A*0301; [4]) was 0.0024.
For SDASICNKEK, the “A*0301 (binding information)” value (HLA-A*0301; [2]) was 0.0005.
With VDESEDITK the “A*0301 (binding information)” value (HLA-A*0301; [4]) was 0.0002.
VEVNKRKSK showed a DR3 binding information (DRB1*0301 (DR3); Malaria DR3b motif peptides) of 0.0880.
In the case of VGLVLYNIEK, the “A*0301 (binding information)” value (HLA-A*0301; [1]) is reported as 0.0005.
With VLDNERKQS the DR3 binding information (DRB1*0301 (DR3); Malaria DR3b motif peptides) was -0.0130.
With VLNELNYDN the DR3 binding information (DRB1*0301 (DR3); [3]) was -0.0033.
For VLYNIEKGRH, the “A*0301 (binding information)” value (HLA-A*0301; [1]) was 0.0029.
For VLYNTEKGRS, the “A*301 (binding data)” value (HLA-A*0301; binding value, no unit given) was 0.0110.
VNKEKEKFI showed a DR3 binding information (DRB1*0301 (DR3); [3]) of -0.0033.
For VPCGKGTISR, the “A*301 (binding data)” value (HLA-A*0301; Table IX) was 0.0004.
For VQYDNFQDE, the DR3 binding information (DRB1*0301 (DR3); [3]) was -0.0033.
In the case of VTPEQPQGD, the DR3 binding information (DRB1*0301 (DR3); [3]) is reported as -0.0033.
YAGEPAPFD gave a DR3 binding information (DRB1*0301 (DR3); [3]) of -0.0130.
Work on YKNDKQVNK yielded a DR3 binding information (DRB1*0301 (DR3); [3]) of -0.0033.
YREEVCNDE gave a DR3 binding information (DRB1*0301 (DR3); [3]) of -0.0033.
